Reference: patent publication US20220356230A1 (published 2022)
Changes are numbered by the printed parent chain.

T1: MERS-CoV (SARS-CoV-2) Spike Protein (ECD, aa 1-1297, His Tag) (Sino 40069-[change]) (MERS-CoV, UniProt K9N5Q8 18-1297)
T1 sequence: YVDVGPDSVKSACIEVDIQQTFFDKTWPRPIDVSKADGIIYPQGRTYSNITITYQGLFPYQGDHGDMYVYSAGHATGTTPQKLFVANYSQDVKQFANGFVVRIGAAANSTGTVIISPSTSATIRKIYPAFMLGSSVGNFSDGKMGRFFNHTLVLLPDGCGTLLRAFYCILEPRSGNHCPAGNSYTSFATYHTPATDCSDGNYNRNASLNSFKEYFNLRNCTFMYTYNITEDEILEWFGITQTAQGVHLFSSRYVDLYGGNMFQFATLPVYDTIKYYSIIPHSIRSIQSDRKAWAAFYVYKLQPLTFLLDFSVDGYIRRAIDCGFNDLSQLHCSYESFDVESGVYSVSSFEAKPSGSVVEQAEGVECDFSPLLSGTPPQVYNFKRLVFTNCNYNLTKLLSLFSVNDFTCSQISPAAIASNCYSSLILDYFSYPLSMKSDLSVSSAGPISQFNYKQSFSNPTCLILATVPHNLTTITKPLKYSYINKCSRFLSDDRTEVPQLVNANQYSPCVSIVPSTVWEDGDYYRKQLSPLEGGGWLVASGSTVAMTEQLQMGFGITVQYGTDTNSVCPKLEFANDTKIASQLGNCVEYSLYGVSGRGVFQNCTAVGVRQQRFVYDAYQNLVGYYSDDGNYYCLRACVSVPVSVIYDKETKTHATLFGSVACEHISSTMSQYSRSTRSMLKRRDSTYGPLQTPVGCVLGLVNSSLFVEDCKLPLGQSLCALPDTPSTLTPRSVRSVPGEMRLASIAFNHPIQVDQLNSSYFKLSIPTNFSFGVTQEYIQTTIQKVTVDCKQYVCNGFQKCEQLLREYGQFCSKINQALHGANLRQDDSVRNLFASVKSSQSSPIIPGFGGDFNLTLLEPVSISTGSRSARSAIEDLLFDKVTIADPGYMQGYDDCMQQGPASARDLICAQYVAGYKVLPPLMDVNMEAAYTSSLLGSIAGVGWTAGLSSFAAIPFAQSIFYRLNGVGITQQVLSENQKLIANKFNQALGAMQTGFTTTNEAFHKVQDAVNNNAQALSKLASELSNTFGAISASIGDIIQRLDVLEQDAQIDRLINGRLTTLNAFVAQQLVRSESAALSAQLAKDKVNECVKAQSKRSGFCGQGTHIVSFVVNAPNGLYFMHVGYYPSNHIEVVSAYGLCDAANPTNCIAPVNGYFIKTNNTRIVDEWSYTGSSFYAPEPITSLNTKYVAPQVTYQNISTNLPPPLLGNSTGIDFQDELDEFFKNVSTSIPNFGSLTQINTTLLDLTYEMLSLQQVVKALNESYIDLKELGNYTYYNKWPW

T2: MERS-CoV (SARS-CoV-2) Spike Protein S2 (aa 726-1296, His Tag) (Sino 40070-[change]) (MERS-CoV, UniProt K9N5Q8 726-1296)
T2 sequence: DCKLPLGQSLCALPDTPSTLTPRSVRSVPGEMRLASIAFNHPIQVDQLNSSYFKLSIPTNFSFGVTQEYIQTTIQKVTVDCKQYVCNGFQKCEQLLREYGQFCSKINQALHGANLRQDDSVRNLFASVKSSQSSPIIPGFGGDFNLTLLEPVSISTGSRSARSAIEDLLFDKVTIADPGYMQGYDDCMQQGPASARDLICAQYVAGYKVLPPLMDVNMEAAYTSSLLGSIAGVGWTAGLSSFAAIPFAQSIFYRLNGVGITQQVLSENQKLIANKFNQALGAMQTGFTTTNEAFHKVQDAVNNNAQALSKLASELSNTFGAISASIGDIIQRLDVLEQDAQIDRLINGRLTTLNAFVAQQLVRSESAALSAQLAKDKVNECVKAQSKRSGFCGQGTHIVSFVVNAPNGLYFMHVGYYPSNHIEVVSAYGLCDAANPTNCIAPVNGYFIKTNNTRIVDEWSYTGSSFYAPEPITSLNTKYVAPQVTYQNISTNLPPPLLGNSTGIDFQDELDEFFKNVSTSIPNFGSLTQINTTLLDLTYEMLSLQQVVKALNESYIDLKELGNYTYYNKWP

T3: MERS-CoV (SARS-CoV-2) Spike Protein (ECD, aa 1-1297, His Tag) (Sino 40069-[change]) (MERS-CoV, UniProt K9N5Q8 18-1297)
T3 sequence: T1 sequence

T4: MERS-CoV (SARS-CoV-2) Spike Protein S2 (aa 726-1296, His Tag) (Sino 40070-[change]) (MERS-CoV, UniProt K9N5Q8 726-1296)
T4 sequence: T2 sequence

B1: mAb10986 (antibody, V domains shown)
VH: EVQLVESGGGLVQPGGSLRLSCAASEFTVSSNYMSWVRQAPGKGLEWVSVIYSGGSTFYADSVKGRFTISRDNSKNTLYLQMNSLRAEDTAVYYCARALPYGDLHFDYWGQGTLVTVSS
VL: QSVLTQPPSVSGAPGQRVTISCTGSSSNIGTGYDVHWYQQLPGTAPKLLIYGNTNRPSGVPDRFSGSKSGTSASLAITGLQAEDEADYYCQSYDSSLSDSYVFGTGTKVTVLG
B2: mAb10955 (antibody, V domains shown)
VH: EVQLVESGGGLVQPGGSLRVSCAASGFTVSRNYMSWVRQAPGKGLEWVSVIYSGGSTFYADSVKGRFTISRDNSKNTLYLQMNSLRAEDTAIYYCARYIPRFDPWGQGTLVTVSS
VL: DIQMTQSPSSLSASVGDRVTITCQASQDISNYLNWFQQKPGRAPKLLIYDASNLETGVPSRFSGSGSGTDFTFTISSLQPEDIATYYCQQYDNLPITFGQGTRLEIKR
B3: mAb10964 (antibody, V domains shown)
VH: QVQLQESGPGLVKPSETLSLTCTVSGGSINNYYWIWIRQPPGKGLEWIGYIYHSGSTNYNPSLKSRVTISVDTSKNQFSLKVSSVTAADTAVYYCANMVRGVYEDDYWGQGTLVTVSS
VL: DIQMTQSPSSLSASVGDRVTITCRASQSISNYLNWYQQKPGKAPKLLIFAASSLRSGVPSRFSGSGSGTDFTLTISSLHPEDFATYYCQQNYNTPLTFGPGTKVDIKR
B4: mAb10966 (antibody, V domains shown)
VH: EVQLVESGGGLVQPGGSLRLSCAASGLTVSSNYMSWVRQAPGKGLEWVSVIYSGGSTFYADSVKGRFTISRDNSKNTLYLQMNSLRPEDTAVYYCAREGRIAATGYGMDVWGQGTTVTVSS
VL: not shown
B5: mAb10971 (antibody, V domains shown)
VH: EVQLVESGGGLIQPGGSLRLSCAASGVTVSSNYMSWVRQAPGKGLEWVSVIYSGGSTFYSDSVKGRFSISRDNSKNTLYLQMNSLRAEDTAVYYCARDLYYYGMDVWGQGTTVTVSS
VL: DIQLTQSPSFLSASVGDRVTITCRASQGISTYLAWYQQKPGKAPKLLIYAASTLQSGVPSRFSGSGSGTEFTLTISSLQPEDFATYYCQQLDSYPGLTFGGGTKVEIKR
B6: mAb10956 (antibody, V domains shown)
VH: B5 VH with I12V, V27L, S60A, S68T, Y100I, Y101K
VL: not shown
B7: mAb10957 (antibody, V domains shown)
VH: B5 VH with I12V, S60A, S68T, Y79F, A87I, Y100G, Y101P
VL: B5 VL with T31S, E70Q, T72I, D92N, L97F, G101P, E106D
B8: mAb10969 (antibody, V domains shown)
VH: QVQLVESGGGVVQPGRSLRLSCAASGFTFSSYAMHWVRQAPGKGLEWVAVISYDGSNKYYADSVKGRFTISRDNSKNTLYLQMNSLRAEDTAVYYCARDGRTITMVRGVIDDAFDIWGQGTMVTVSS
VL: not shown
B9: mAb10970 (antibody, V domains shown)
VH: EVQLVESGGGLVQPGGSLRLSCAASGFTVSSNYMSWVRQAPGKGLEWVSVIYSGGSTYYADSVKGRFTISRDNSKNTLYLQMNRLRADDTAVYYCVRDPVGRYYYGMDVWGQGTTVTVSS
VL: not shown
B10: mAb10987 (antibody, V domains shown)
VH: QVQLVESGGGVVQPGRSLRLSCAASGFTFSNYAMYWVRQAPGKGLEWVAVISYDGSNKYYADSVKGRFTISRDNSKNTLYLQMNSLRTEDTAVYYCASGSDYGDYLLVYWGQGTLVTVSS
VL: QSALTQPASVSGSPGQSITISCTGTSSDVGGYNYVSWYQQHPGKAPKLMIYDVSKRPSGVSNRFSGSKSGNTASLTISGLQSEDEADYYCNSLTSISTWVFGGGTKLTVLG
B11: mAb10934 (antibody, V domains shown)
VH: not shown
VL: B2 VL with S30W, L33I, F36Y, R42K, E55K, Y91H, N93D, I96P, R103K, L104V
B12: mAb10913 (antibody, V domains shown)
VH: EVQLVESGGGLVQPGGSLRLSCAASGFTFRNYEMNWVRQAPGKGLEWVSYITSSGSTMYYADSVKGRFTISRDNAKNSLYLQMNSLRAEDTAVYYCARDGFYYYYAMDVWGQGTTVTVSS
VL: QSVLTQPPSVSAAPGQKVTISCSGSSSNIGNNYVSWYQQLPGTAPKLLIYDNNKRPSGIPDRFSGSKSGTSATLGITGLQTGDEADYYCGTWDSSLSVGRVFGTGTKVTVLG
B13: mAb10914 (antibody, V domains shown)
VH: EVQLVESGGGLVQPGGSLRLSCAASGLIVSRNYMIWVRQAPGKGLEWVSVIYSGGSTFYADSVKGRFTISRHNSKNTLYLQMNSLRAEDTAVYYCARDLGTGGMDVWGQGTTVTVSS
VL: DIQLTQSPSFLSASVGDRVTITCWASQGISSYLAWYQQKPGKAPKLLIYAASTLQSGVPSRFSGSGSGTEFTLTISSLQPEDFATYYCQQLNSYPLTFGGGTKVEIKR
B14: mAb10933 (antibody, V domains shown)
VH: QVQLVESGGGLVKPGGSLRLSCAASGFTFSDYYMSWIRQAPGKGLEWVSYITYSGSTIYYADSVKGRFTISRDNAKSSLYLQMNSLRAEDTAVYYCARDRGTTMVPFDYWGQGTLVTVSS
VL: B2 VL with S30T, F36Y, R42K, D50A, S77G, I96L, Q100G, R103K, L104V
B15: mAb10915 (antibody, V domains shown)
VH: EVQLVESGGGLVQPGGSLRLSCAASGFTVSSNYMNWVRQAPGKGLEWVSVIYSGGSTFYADSVKGRFTISRHNSKNTLYLQMNSLRPEDTAVYYCARDLGGYFDYWGQGTLVTVSS
VL: not shown

Biological target: SARS-CoV-2 spike protein (S-wt, Wuhan-Hu-1, NCBI Accession Number MN908947.3) on VSV-SARS-CoV-2-S … (SARS-CoV-2, UniProt P0DTC2 14-1273)
Test: cell-based or functional assay

Binder	mAb neutralization potency (IC50 (M)) [M]
B1	9.91e-11

Biological target: Human SARS Coronavirus Spike S1 Subunit Protein (His Tag) (Sino 40150-V08B1) (Human SARS Coronavirus, UniProt P59594 14-667)
Test: Luminex bead binding, antigen on microspheres, antibody supernatant

Binder	MFI [MFI]
B2	14
B3	5190
B4	20
B5	20
B6	16
B7	16
B8	20

Biological target: T1, MERS-CoV (SARS-CoV-2) Spike Protein …
Test: as above

Binder	MFI [MFI]
B2	15
B9	14
B3	15
B4	16
B5	15
B6	15
B7	15
B8	16
B10	15

Biological target: T2, MERS-CoV (SARS-CoV-2) Spike Protein S2 …
Test: as above

Binder	MFI [MFI]
B2	18
B9	16
B4	16
B5	13
B6	16
B7	18
B8	20
B10	23

Biological target: T3, MERS-CoV (SARS-CoV-2) Spike Protein …
Test: Luminex bead assay, supernatant on antigen microspheres

Binder	Binding signal (MFI)
B11	15
B12	20
B13	19

Biological target: T4, MERS-CoV (SARS-CoV-2) Spike Protein S2 …
Test: as above

Binder	Binding signal (MFI)
B14	19
B12	26
B13	28
B15	23
